One assay has as its target T1, 4H2692-bA.
T1 chain: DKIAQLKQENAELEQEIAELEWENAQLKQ
As to the kind of experiment: two-hybrid library CCNG1.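 Note: natural log of median RNA to DNA barcode read ratio; higher means stronger binding.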

The next assay has as its target T2, 4H2717-bA.
T2 chain: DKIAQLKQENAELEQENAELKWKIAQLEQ
Kind of assay: two-hybrid library CCNG1.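 Note: natural log of median RNA to DNA barcode read ratio; higher means stronger binding.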

The target in a further assay is T3, 4H2839-bA.
T3 chain: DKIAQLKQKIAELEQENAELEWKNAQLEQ
Kind of assay: two-hybrid library CCNG1.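 Note: natural log of median RNA to DNA barcode read ratio; higher means stronger binding.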

For another assay, the target named is T4, 4H2859-bH.
T4 chain: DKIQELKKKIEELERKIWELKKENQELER
Kind of assay: two-hybrid library CCNG1.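 Note: natural log of median RNA to DNA barcode read ratio; higher means stronger binding.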

For another assay, the target named is T5, 4H2915-bA.
T5 chain: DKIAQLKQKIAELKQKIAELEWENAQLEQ
As to the kind of experiment: two-hybrid library CCNG1.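 Note: natural log of median RNA to DNA barcode read ratio; higher means stronger binding.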

The next assay deals with T6, 4H3057-bA.
T6 chain: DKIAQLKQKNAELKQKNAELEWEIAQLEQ
Kind of assay: two-hybrid library CCNG1.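 Note: natural log of median RNA to DNA barcode read ratio; higher means stronger binding.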

For the next assay, the target named is T7, 4H319-bA.
T7 chain: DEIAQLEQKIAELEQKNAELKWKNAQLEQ
Kind of assay: two-hybrid library CCNG1.

The target of another assay is T8, 4H319-bN.
T8 chain: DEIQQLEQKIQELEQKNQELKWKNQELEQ
As to the kind of experiment: two-hybrid library CCNG1.

The next assay addresses T9, 4H3277-bA.
T9 chain: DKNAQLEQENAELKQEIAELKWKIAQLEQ
As to the kind of experiment: two-hybrid library CCNG1.

The target in the next assay is T10, 4H3298-bA.
T10 chain: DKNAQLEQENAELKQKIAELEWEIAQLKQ
As to the kind of experiment: two-hybrid library CCNG1.

A further assay deals with T11, 4H348-bA.
T11 chain: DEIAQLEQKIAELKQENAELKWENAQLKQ
As to the kind of experiment: two-hybrid library CCNG1.

The next assay addresses T12, 4H40-bA.
T12 chain: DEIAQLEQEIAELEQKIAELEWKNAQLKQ
Kind of assay: two-hybrid library CCNG1.

The next assay concerns the target T13, 4H477-bA.
T13 chain: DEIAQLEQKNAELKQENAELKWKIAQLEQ
Kind of assay: two-hybrid library CCNG1.

The target in a further assay is T14, 4H492-bA.
T14 chain: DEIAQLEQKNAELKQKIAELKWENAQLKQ
As to the kind of experiment: two-hybrid library CCNG1.

For another assay, the target named is T15, 4H741-bA.
T15 chain: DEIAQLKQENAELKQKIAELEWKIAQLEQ
As to the kind of experiment: two-hybrid library CCNG1.

A further assay addresses T16, O6-bP.
T16 chain: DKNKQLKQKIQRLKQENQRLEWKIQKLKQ
Kind of assay: two-hybrid library CCNG1.

In another assay the target is T17, P2-AA-1HAA-D.
T17 chain: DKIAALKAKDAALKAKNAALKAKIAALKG
Kind of assay: two-hybrid library CCmax. Conditions: mean of both orientations.

The target in another assay is T18, P2-AA-1HAA-E.
T18 chain: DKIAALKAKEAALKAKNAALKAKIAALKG
As to the kind of experiment: two-hybrid library CCmax. Conditions: mean of both orientations.

In a further assay the target is T19, P2-AA-1HAA-I.
T19 chain: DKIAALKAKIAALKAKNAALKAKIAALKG
As to the kind of experiment: two-hybrid library CCmax. Conditions: mean of both orientations.

The target in a further assay is T20, P2-AA-1HAA-T.
T20 chain: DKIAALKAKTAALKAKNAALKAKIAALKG
As to the kind of experiment: two-hybrid library CCmax. Conditions: mean of both orientations.

The target in the next assay is T21, P2-AA-1HAA-V.
T21 chain: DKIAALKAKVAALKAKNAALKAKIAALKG
Kind of assay: two-hybrid library CCmax. Conditions: mean of both orientations.

The target in another assay is T22, P2-AA.
T22 chain: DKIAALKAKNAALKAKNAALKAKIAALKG
Kind of assay: two-hybrid library CCmax. Conditions: mean of both orientations.

A further assay addresses T23, P7SHb.
T23 chain: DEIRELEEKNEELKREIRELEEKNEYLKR
As to the kind of experiment: two-hybrid library CCNG1.

In another assay the target is T24, P8SHb.
T24 chain: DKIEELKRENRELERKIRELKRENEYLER
As to the kind of experiment: two-hybrid library CCNG1.

The next assay deals with T25, P9SHb.
T25 chain: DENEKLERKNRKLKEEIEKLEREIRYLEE
Kind of assay: two-hybrid library CCNG1.

For a further assay, the target named is T26, 4H3172-bN.
T26 chain: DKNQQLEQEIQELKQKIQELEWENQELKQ
As to the kind of experiment: two-hybrid library CCNG1.

Another assay addresses T27, 4H3414-bN.
T27 chain: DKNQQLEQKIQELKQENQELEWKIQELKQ
As to the kind of experiment: two-hybrid library CCNG1.

In the next assay the target is T28, 4H3631-bN.
T28 chain: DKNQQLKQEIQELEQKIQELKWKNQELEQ
Kind of assay: two-hybrid library CCNG1.

The target in another assay is T29, 4H3638-bN.
T29 chain: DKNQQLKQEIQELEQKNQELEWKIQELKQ
Kind of assay: two-hybrid library CCNG1.

The target of another assay is T30, 4H3817-bN.
T30 chain: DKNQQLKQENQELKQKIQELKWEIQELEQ
As to the kind of experiment: two-hybrid library CCNG1.

In a further assay the target is T31, 4H3974-bN.
T31 chain: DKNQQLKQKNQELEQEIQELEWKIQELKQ
As to the kind of experiment: two-hybrid library CCNG1.

In the next assay the target is T32, 4H570-bN.
T32 chain: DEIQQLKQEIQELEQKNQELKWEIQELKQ
As to the kind of experiment: two-hybrid library CCNG1.

The target in the next assay is T33, 4H584-bN.
T33 chain: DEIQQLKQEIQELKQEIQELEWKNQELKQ
Kind of assay: two-hybrid library CCNG1.

The target of a further assay is T34, 4H619-bN.
T34 chain: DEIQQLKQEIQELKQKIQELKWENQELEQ
Kind of assay: two-hybrid library CCNG1.

For another assay, the target named is T35, 4H850-bN.
T35 chain: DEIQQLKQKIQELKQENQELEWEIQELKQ
As to the kind of experiment: two-hybrid library CCNG1.

The next assay has as its target T36, 4H906-bN.
T36 chain: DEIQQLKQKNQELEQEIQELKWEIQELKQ
As to the kind of experiment: two-hybrid library CCNG1.

Consider DKIAQLKQENAELEQEIAELEWENAQLKQ [4H2692-bA], for which the interaction score was -0.461 with 4H2692-bA; -0.0486 in the assay with 4H2717-bA; -1.15 with 4H2839-bA; -0.0963 in the assay with 4H2859-bH; 0.654 with 4H2915-bA; -0.734 in the assay with 4H3057-bA. In addition, the interaction score was -0.498 with 4H319-bA; 0.192 in the assay with 4H319-bN; -0.458 in the assay with 4H3277-bA; 1.59 with 4H3298-bA; -1.58 with 4H348-bA; -0.113 in the assay with 4H40-bA. Further, the interaction score with 4H477-bA is -1.06; with 4H492-bA it was 2.26; with 4H741-bA it was -0.251; with O6-bP, 0.95.
For DEIAALEAEVAALEAENAALEAEIAALEG [P1-AA-1HAA-V], the interaction score turned out to be 1.95 with P2-AA-1HAA-D; 1.98 in the assay with P2-AA-1HAA-E; 2.11 in the assay with P2-AA-1HAA-I; 2.16 with P2-AA-1HAA-T; 2.01 with P2-AA-1HAA-V; 2.01 with P2-AA.
Turning to DEIRELEEKNEELKREIRELEEKNEYLKR [P7SHb], the interaction score in the assay with P7SHb was -0.618; in the assay with P8SHb, 1.18; in the assay with P9SHb, 0.021.
As to DKNQQLEQEIQELKQKIQELEWENQELKQ [4H3172-bN], the interaction score with 4H3172-bN was -0.109; with 4H3414-bN, 0.0803; in the assay with 4H3631-bN, 1.27; in the assay with 4H3638-bN it was -0.362; with 4H3817-bN, -0.519; with 4H3974-bN, -0.234. Also, the interaction score with 4H570-bN was -0.602; with 4H584-bN, -0.681; with 4H619-bN it was 0.271; with 4H850-bN it was -0.789; with 4H906-bN, -1.5.

For the origin of these results see article PMC10397247.
